# Source: patent publication US20190374506A1 (BETH ISREAL DEACONESS MEDICAL CENTER, published 2019)
# B1: Isoform 2 of Structural maintenance of chromosomes protein 2 (other)
# chain: MHIKSIILEGFKSYAQRTEVNGFDPLFNAITGLNGSGKSNILDSICFLLGISNLSQVRASNLQDLVYKNGQAGITKASVSITFDNSDKKQSPLGFEVHDEITVTRQVVIGGRNKYLINGVNANNTRVQDLFCSVGLNVNNPHFLIMQGRITKVLNMKPPEILSMIEEAAGTRMYEYKKIAAQKTIEKKEAKLKEIKTILEEEITPTIQKLKEERSSYLEYQKVMREIEHLSRLYIAYQFLLAEDTKVRSAEELKEMQDKVIKLQEELSENDKKIKALNHEIEELEKRKDKETGGILRSLEDALAEAQRVNTKSQSAFDLKKKNLACEESKRKELEKNMVEDSKTLAAKEKEVKKITDGLHALQEASNKDAEALAAAQQHFNAVSAGLSSNEDGAEATLAGQMMACKNDISKAQTEAKQAQMKLKHAQQELKNKQAEVKKMDSGYRKDQEALEAVKRLKEKLEAEMKKLNYEENKEESLLEKRRQLSRDIGRLKETYEALLARFPNLRFAYKDPEKNWNRNCVKGLVASLISVKDTSATTALELVAGERLYNVVVDTEVTGKKLLERGELKRRYTIIPLNKISARCIAPETLRVAQNLVGPDNVHVALSLVEYKPELQKAMEFVFGTTFVCDNMDNAKKVAFDKRIMTRTVTLGGDVFDPHGTLSGGARSQAASILTKFQELKDVQDELRIKENELRALEEELAGLKNTAEKYRQLKQQWEMKTEEADLLQTKLQQSSYHKQQEELDALKKTIEESEETLKNTKEIQRKAEEKYEVLENKMKNAEAERERELKDAQKKLDCAKTKADASSKKMKEKQQEVEAITLELEELKREHTSYKQQLEAVNEAIKSYESQIEVMAAEVAKNKESVNKAQEEVTKQKEVITAQDTVIKAKYAEVAKHKEQNNDSQLKIKELDHNISKHKREAEDGAAKVSKMLKDYDWINAERHLFGQPNSAYDFKTNNPKEAGQRLQKLQEMKEKLGRNVNMRAMNVLTEAEERYNDLMKKKRIVENDKSKILTTIEDLDQKKNQALNIAWQKVNKDFGSIFSTLLPGANAMLAPPEGQTVLDGLEFKVALGNTWKENLTELSGGQRQKQQNHTTG
# B2: Cytoskeleton-associated protein 4 (other)
# chain: MPSAKQRGSKGGHGAASPSEKGAHPSGGADDVAKKPPPAPQQPPPPPAPHPQQHPQQHPQNQAHGKGGHRGGGGGGGKSSSSSSASAAAAAAAASSSASCSRRLGRALNFLFYLALVAAAAFSGWCVHHVLEEVQQVRRSHQDFSRQREELGQGLQGVEQKVQSLQATFGTFESILRSSQHKQDLTEKAVKQGESEVSRISEVLQKLQNEILKDLSDGIHVVKDARERDFTSLENTVEERLTELTKSINDNIAIFTEVQKRSQKEINDMKAKVASLEESEGNKQDLKALKEAVKEIQTSAKSREWDMEALRSTLQTMESDIYTEVRELVSLKQEQQAFKEAADTERLALQALTEKLLRSEESVSRLPEEIRRLEEELRQLKSDSHGPKEDGGFRHSEAFEALQQKSQGLDSRLQHVEDGVLSMQVASARQTESLESLLSKSQEHEQRLAALQGRLEGLGSSEADQDGLASTVRSLGETQLVLYGDVEELKRSVGELPSTVESLQKVQEQVHTLLSQDQAQAARLPPQDFLDRLSSLDNLKASVSQVEADLKMLRTAVDSLVAYSVKIETNENNLESAKGLLDDLRNDLDRLFVKVEKIHEKV
# B3: PTEN K342/K344R mutant (enzyme, not shown: small tags and cut ends)
# chain: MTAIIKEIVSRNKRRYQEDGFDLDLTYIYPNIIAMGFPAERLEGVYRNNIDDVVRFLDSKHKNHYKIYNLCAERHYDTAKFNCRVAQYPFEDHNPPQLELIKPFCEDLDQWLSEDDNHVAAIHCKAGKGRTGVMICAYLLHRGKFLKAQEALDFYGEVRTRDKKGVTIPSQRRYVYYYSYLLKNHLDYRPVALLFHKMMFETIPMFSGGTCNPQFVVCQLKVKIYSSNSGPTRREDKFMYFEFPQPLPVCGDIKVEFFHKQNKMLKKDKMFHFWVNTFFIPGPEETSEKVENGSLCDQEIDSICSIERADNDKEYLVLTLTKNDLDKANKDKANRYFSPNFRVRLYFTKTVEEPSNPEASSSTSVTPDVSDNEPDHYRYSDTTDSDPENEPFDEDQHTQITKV
# notes: also called Myc-PTEN K342/K344R mutant; PTEN K342/K344R ubiquitination defective mutant
# B4: N-terminal PTEN (1-187) (enzyme, not shown: small tags and cut ends)
# chain: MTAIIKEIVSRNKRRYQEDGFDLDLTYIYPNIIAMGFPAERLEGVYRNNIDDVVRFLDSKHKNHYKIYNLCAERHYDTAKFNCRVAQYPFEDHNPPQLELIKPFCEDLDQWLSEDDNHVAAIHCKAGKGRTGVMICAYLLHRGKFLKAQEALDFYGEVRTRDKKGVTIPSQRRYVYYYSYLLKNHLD
# B5: Monofunctional C1-tetrahydrofolate synthase (enzyme)
# chain: SSGGGGGGGGGREGLLGQRRPQDGQARSSCSPGGRTPAARDSIVREVIQNSKEVLSLLQEKNPAFKPVLAIIQAGDDNLMQEINQNLAEEAGLNITHICLPPDSSEAEIIDEILKINEDTRVHGLALQISENLFSNKVLNALKPEKDVDGVTDINLGKLVRGDAHECFVSPVAKAVIELLEKSGVNLDGKKILVVGAHGSLEAALQCLFQRKGSMTMSIQWKTRQLQSKLHEADIVVLGSPKPEEIPLTWIQPGTTVLNCSHDFLSGKVGCGSPRIHFGGLIEEDDVILLAAALRIQNMVSSGRRWLREQQHRRWRLHCLKLQPLSPVPSDIEISRGQTPKAVDVLAKEIGLLADEIEIYGKSKAKVRLSVLERLKDQADGKYVLVAGITPTPLGEGKSTVTIGLVQALTAHLNVNSFACLRQPSQGPTFGVKGGAAGGGYAQVIPMEEFNLHLTGDIHAITAANNLLAAAIDTRILHENTQTDKALYNRLVPLVNGVREFSEIQLARLKKLGINKTDPSTLTEEEVSKFARLDIDPSTITWQRVLDTNDRFLRKITIGQGNTEKGHYRQAQFDIAVASEIMAVLALTDSLADMKARLGRMVVASDKSGQPVTADDLGVTGALTVLMKDAIKPNLMQTLEGTPVFVHAGPFANIAHGNSSVLADKIALKLVGEEGFVVTEAGFGADIGMEKFFNIKCRASGLVPNVVVLVATVRALKMHGGGPSVTAGVPLKKEYTEENIQLVADGCCNLQKQIQITQLFGVPVVVALNVFKTDTRAEIDLVCELAKRAGAFDAVPCYHWSVGGKGSVDLARAVREAASKRSRFQFLYDVQVPIVDKIRTIAQAVYGAKDIELSPEAQAKIDRYTQQGFGNLPICMAKTHLSLSHQPDKKGVPRDFILPISDVRASIGAGFIYPLVGTMSTMPGLPTRPCFYDIDLDTETEQVKGLF
# B6: Isoform 2 of Putative RNA-binding protein 15 (other)
# chain: MRTAGRDPVPRRSPRWRRAVPLCETSAGRRVTQLRGDDLRRPATMKGKERSPVKAKRSRGGEDSTSRGERSKKLGGSGGSNGSSSGKTDSGGGSRRSLHLDKSSSRGGSREYDTGGGSSSSRLHSYSSPSTKNSSGGGESRSSSRGGGGESRSSGAASSAPGGGDGAEYKTLKISELGSQLSDEAVEDGLFHEFKRFGDVSVKISHLSGSGSGDERVAFVNFRRPEDARAAKHARGRLVLYDRPLKIEAVYVSRRRSRSPLDKDTYPPSASVVGASVGGHRHPPGGGGGQRSLSPGGAALGYRDYRLQQLALGRLPPPPPPPLPRDLERERDYPFYERVRPAYSLEPRVGAGAGAAPFREVDEISPEDDQRANRTLFLGNLDITVTESDLRRAFDRFGVITEVDIKRPSRGQTSTYGFLKFENLDMSHRAKLAMSGKIIIRNPIKIGYGKATPTTRLWVGGLGPWVPLAALAREFDRFGTIRTIDYRKGDSWAYIQYESLDAAHAAWTHMRGFPLGGPDRRLRVDFADTEHRYQQQYLQPLPLTHYELVTDAFGHRAPDPLRGARDRTPPLLYRDRDRDLYPDSDWVPPPPPVRERSTRTAATSVPAYEPLDSLDRRRDGWSLDRDRGDRDLPSSRDQPRKRRLPEESGGRHLDRSPESDRPRKRHCAPSPDRSPELSSSRDRYNSDNDRSSRLLLERPSPIRDRRGSLEKSQGDKRDRKNSASAERDRKHRTTAPTEGKSPLKKEDRSDGSAPSTSTASSKLKSPSQKQDGGTAPVASASPKLCLAWQGMLLLKNSNFPSNMHLLQGDLQVASSLLVEGSTGGKVAQLKITQRLRLDQPKLDEVTRRIKVAGPNGYAILLAVPGSSDSRSSSSSAASDTATSTQRPLRNLVSYLKQKQAAGVISLPVGGNKDKENTGVLHAFPPCEFSQQFLDSPAKALAKSEEDYLVMIIVRGAS
# Legend:
# HA-PTEN = target: T1, HA-PTEN (human, UniProt P60484 1-403); test: anti-PTEN immunoprecipitation from DU145 cells transfected with HA-PTEN, SDS-PAGE, mass-spectrometric peptide sequencing of the bands (association in the precipitate)
# T1 construct: Expressed in DU145 cells and immunoprecipitated with anti-PTEN antibody for mass spectrometry; also called exogenous PTEN; pcDNA3-HA-PTEN; not shown: HA tag
# From the text: FIG. 2A is a Western blot. Lysates from DU145 cells transfected with HA-PTEN were immunoprecipitated with an anti-PTEN antibody followed by mass-spectrometric peptide sequencing. WWP1 and NEDD4-1 were identified.
# In order to identify the E3 ligases that induce PTEN atypical K27-linked poly-ubiquitination, exogenous PTEN was immunoprecipitated from DU145 cells, followed by identification of the proteins that interacted with PTEN by mass spectrometry (FIG. 2A; FIG. 18).
# [1] = target: the molecule itself; test: gel filtration of HEK293 lysate, fractions on SDS-PAGE, anti-Myc blot
# Description: 293 cells were transfected with the indicated expression vectors. After 24 hours, cells were washed with PBS, lysed and filtered through a 0.45 μm syringe filter. 500 μl of lysate (4 mg/ml) was loaded into a Superdex200 10/300 GL column (GE Lifesciences Cat. No. 17-5175-01). Tandem columns gel filtrations were performed by further attaching a series Superdex 75 10/300 GL column (GE Lifesciences Cat. No. 17-5174-01). Samples were separated in a Superdex75 column first, followed by a Superdex 200 column. Chromatography was performed by using anAKTA FPLC (GE Lifesciences Cat. No. 18-1900-26), and protein complexes were resolved and eluted with lysis buffer at 0.5 ml/minute, 500 μl per fraction. 40 μl aliquots of each fraction were separated by SDS-PAGE and western blot analysis was performed with the indicated antibodies. Before sample separation, molecular-weight resolution of the columns was estimated by running the Gel Filtration Calibration Kit (GE Lifesciences, #28-4038-42) to determine retention times on Coomassie-stained SDS-PAGE protein gels.
# Flag-WWP1 = target: T2, Flag-WWP1 (Homo sapiens (Human), UniProt Q9H0M0 1-922); test: reciprocal co-immunoprecipitation from 293 cells: IP HA / WB Flag and IP Flag / WB HA
# T2 construct: also called full-length Flag-WWP1; recombinant Flag-WWP1; not shown: Flag tag
Binder,binding result (HA-PTEN),other results
B1,binds,–
B2,binds,–
B3,–,binding result [1]: binds
B4,–,binding result (Flag-WWP1): no binding
B5,binds,–
B6,binds,–
